By Kd is commonly meant the constant that tells how readily two partners part at equilibrium.

The target of this assay is antithrombin (UniProt P01008). The assay can be described thus: SPR. On the technique in general: Surface plasmon resonance follows binding to a sensor surface in real time, without labels.
Sequence of UniProt P01008 (P01008 33-464): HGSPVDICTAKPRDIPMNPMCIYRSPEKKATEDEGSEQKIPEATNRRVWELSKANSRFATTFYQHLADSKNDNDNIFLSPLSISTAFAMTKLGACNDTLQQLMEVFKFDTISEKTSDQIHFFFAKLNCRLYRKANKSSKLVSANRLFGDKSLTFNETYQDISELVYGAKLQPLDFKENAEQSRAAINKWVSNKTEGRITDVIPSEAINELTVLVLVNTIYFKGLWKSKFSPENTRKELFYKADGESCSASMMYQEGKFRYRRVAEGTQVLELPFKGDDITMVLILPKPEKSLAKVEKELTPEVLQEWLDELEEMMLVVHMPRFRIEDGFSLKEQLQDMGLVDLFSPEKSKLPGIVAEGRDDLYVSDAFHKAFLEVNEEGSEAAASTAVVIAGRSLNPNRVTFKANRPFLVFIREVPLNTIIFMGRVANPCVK

For “S195A Gla-domainless factor Xa (domain or fragment)”, the Kd is 416 nM. This lies in the sub-micromolar range.

For the substance “K96Y S195A Gla-domainless factor Xa (domain or fragment)”, the Kd was found to be 460 nM.

The values are drawn from publication doi:10.1101/2022.08.03.502629.
